Test results reported in US20160159879A1 (UNIVERSITY OF NORTH CAROLINA AT CHAPEL HILL, published 2016).
Ends that are not written are not given here. * marks the point of attachment. Biotin = O=C1N[C@H]2[C@H](CS[C@H]2CCCCC(=O)*)N1

Legend:
[1] = target: ENaC endogenous to primary human bronchial epithelial cultures (human) (UniProt P37088); test: cell-based or functional assay
[2] = target: αβγENaC expressed in Xenopus laevis oocytes (rat) (UniProt P37089); test: cell-based or functional assay
[3] = target: yfp-tagged αENaC stably expressed in JME nasal epithelial cells; test: fluorescence binding isotherm on polarized JME cells expressing yfp-αENaC, 30 min, empty-vector cells as non-specific binding, Hill fit
[4] = test system: T1, Recombinant V5/6His-tagged SPLUNC1 purified from HEK293 media
T1 sequence: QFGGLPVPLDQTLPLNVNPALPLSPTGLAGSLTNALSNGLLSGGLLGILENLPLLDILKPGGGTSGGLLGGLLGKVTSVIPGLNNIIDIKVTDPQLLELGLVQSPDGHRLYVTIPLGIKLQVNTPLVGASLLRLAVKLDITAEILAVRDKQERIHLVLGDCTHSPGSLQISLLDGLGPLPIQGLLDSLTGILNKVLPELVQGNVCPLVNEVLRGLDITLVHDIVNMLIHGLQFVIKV

[5] = target: ENaC endogenous to primary human bronchial epithelial cultures (human, UniProt P37088 1-669; P51168 1-640; P51170 1-649); test: cell-based or functional assay
[6] = target: αβγENaC expressed in Xenopus laevis oocytes (rat, UniProt P37089 1-698; P37090 1-638; P37091 1-650); test: cell-based or functional assay
Sequence of αβγENaC expressed in Xenopus laevis oocytes (P37089 whole entry, chain 1 of 3): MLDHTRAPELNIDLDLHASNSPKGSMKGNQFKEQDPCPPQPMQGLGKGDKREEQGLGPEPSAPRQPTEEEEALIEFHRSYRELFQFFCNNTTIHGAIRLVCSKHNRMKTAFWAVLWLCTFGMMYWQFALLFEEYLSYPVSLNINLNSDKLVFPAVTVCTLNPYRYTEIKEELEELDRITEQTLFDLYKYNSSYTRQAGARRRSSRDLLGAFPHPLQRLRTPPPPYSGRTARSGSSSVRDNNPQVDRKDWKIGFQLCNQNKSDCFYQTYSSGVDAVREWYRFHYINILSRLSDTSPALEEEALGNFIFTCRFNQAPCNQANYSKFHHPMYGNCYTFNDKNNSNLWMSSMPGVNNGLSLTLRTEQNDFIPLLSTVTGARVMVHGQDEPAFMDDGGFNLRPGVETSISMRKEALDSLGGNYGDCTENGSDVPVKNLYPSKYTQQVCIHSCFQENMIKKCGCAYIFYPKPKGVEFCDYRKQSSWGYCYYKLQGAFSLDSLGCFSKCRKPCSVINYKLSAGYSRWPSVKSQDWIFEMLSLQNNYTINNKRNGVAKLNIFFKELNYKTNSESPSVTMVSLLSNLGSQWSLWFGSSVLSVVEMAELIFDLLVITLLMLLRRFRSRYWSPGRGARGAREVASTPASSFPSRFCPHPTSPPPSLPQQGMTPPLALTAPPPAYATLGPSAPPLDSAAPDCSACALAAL
Sequence of αβγENaC expressed in Xenopus laevis oocytes (P37090 whole entry, chain 2 of 3): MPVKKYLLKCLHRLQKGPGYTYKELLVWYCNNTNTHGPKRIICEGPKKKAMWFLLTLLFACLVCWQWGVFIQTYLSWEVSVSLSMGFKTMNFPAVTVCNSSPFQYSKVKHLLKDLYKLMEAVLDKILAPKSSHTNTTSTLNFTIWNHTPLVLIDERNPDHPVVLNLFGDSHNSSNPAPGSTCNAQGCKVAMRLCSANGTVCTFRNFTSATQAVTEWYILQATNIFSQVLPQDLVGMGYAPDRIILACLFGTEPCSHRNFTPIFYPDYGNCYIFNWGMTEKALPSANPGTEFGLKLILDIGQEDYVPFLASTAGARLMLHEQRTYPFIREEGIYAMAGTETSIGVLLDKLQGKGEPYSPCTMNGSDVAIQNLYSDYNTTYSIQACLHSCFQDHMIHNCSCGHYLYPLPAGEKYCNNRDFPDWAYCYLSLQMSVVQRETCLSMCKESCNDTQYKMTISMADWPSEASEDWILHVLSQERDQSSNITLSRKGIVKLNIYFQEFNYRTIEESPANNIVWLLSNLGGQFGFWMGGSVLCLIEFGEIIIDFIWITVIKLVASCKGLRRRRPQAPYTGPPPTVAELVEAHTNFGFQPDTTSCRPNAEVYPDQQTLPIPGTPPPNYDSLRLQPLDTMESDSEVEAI
Sequence of αβγENaC expressed in Xenopus laevis oocytes (P37091 whole entry, chain 3 of 3): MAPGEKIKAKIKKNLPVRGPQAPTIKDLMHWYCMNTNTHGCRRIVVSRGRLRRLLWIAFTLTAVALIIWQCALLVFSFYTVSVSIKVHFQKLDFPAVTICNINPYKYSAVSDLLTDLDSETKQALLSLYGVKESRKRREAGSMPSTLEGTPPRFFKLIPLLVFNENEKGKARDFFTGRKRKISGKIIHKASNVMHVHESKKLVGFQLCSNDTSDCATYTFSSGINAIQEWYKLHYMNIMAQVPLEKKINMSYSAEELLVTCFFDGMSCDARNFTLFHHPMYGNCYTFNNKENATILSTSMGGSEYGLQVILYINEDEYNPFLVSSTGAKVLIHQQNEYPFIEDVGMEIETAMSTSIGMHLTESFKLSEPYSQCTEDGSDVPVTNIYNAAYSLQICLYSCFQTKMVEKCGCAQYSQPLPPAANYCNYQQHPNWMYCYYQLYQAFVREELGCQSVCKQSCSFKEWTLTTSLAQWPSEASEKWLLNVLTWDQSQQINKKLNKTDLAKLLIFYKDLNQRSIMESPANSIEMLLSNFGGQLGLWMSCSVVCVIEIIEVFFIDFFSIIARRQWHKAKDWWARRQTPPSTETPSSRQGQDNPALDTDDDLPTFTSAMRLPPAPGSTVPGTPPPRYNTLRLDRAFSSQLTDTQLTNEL

[7] = target: T2, Human βENaC subunit, HA (N-terminus) and V5 (C-terminus) tagged, expressed in HEK293T cells (human, UniProt P51168 1-640, glycosylated (EndoH and tunicamycin experiments)); test: peptide pull-down on neutravidin beads, Western blot with anti-V5
T2 sequence (looked up): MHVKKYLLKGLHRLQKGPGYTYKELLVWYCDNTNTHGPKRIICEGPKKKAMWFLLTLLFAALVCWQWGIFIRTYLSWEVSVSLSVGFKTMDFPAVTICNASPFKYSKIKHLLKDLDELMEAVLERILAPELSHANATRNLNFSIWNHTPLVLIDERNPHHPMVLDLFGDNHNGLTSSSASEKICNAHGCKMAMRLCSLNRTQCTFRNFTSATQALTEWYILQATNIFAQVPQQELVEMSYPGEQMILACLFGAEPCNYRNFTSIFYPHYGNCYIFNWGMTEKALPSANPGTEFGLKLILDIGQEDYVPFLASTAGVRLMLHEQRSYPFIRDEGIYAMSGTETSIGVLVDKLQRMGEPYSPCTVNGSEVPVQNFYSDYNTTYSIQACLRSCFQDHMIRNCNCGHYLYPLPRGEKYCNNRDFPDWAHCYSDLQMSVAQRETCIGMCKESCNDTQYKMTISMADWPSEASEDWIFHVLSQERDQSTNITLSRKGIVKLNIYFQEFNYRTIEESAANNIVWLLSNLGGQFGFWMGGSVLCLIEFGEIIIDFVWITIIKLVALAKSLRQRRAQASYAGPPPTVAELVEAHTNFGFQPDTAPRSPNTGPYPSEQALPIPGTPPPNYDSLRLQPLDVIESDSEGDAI

[8] = target: T3, Human αENaC subunit, HA (N-terminus) and V5 (C-terminus) tagged, expressed alone in HEK293T cells (human, UniProt P37088 1-669); test: pull-down with biotinylated S18 of subunits expressed individually in HEK cells, Western blot
T3 sequence (looked up): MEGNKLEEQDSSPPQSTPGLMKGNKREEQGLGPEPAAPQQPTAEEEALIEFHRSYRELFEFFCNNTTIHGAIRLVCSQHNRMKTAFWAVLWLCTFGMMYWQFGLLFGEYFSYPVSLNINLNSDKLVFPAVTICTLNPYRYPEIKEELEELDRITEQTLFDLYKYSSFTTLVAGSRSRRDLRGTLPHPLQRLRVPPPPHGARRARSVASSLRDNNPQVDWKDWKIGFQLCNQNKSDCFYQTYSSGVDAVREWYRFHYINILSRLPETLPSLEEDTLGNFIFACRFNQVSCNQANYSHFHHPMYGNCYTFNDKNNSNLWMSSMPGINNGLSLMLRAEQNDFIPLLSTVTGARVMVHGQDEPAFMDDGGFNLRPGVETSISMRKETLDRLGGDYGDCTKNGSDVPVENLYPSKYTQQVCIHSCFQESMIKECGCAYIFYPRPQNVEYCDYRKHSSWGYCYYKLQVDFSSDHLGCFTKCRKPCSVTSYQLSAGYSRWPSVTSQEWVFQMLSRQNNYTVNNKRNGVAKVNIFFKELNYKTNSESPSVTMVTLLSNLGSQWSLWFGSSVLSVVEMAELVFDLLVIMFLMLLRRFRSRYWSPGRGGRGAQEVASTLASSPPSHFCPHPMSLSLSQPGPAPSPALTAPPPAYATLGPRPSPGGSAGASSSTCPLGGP

[9] = target: T4, Human γENaC subunit, HA (N-terminus) and V5 (C-terminus) tagged, expressed alone in HEK293T cells (human, UniProt P51170 1-649); test: as above
T4 sequence (looked up): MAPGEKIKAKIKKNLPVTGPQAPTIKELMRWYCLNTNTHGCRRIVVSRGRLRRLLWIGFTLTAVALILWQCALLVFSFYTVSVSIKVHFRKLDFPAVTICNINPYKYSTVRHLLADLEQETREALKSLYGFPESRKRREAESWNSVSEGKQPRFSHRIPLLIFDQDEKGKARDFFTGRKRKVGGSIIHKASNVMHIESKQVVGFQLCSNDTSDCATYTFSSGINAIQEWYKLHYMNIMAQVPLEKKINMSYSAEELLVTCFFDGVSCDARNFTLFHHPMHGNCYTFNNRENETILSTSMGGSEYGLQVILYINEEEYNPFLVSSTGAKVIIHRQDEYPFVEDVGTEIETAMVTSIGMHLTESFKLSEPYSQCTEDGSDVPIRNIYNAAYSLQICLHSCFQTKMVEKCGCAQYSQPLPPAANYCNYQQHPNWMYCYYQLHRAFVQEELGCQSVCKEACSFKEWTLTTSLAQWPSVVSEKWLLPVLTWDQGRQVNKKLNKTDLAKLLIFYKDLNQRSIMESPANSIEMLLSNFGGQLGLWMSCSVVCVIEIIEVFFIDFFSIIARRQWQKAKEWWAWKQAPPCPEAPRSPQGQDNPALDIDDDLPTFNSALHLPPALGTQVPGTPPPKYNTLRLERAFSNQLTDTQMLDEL

Sequence of αβγENaC expressed in Xenopus laevis oocytes (rat) (P37089 whole entry, chain 1 of 3): as the sequence (P37089 whole entry, chain 1 of 3) above
Sequence of αβγENaC expressed in Xenopus laevis oocytes (rat) (P37090 whole entry, chain 2 of 3, further chain): as the sequence (P37090 whole entry, chain 2 of 3) above
Sequence of αβγENaC expressed in Xenopus laevis oocytes (rat) (P37091 whole entry, chain 3 of 3, further chain): as the sequence (P37091 whole entry, chain 3 of 3) above

Work on “Recombinant V5/6His-tagged SPLUNC1 purified from HEK293 media (from UniProt Q9NP55 20-256)” yielded a transepithelial electrical resistance [1] of 33% and a decrease in ENaC currents (amiloride-sensitive), two electrode voltage clamp in oocytes [2] of 70%.

In the case of “Texas red-labeled recombinant SPLUNC1 (from UniProt Q9NP55 20-256)”, the Kd [3] is reported as 0.055 µg/mL.

For Trypsin, the “cleavage of the fluorogenic substrate BGAR-MCA by 1.0 or 0.3 U/ml trypsin” value [4] was 50 ng/ml rSPLUNC1 had only a modest affect (˜10%) on the ability of either 1.0 or 0.3 U/ml trypsin to cleave a fluorogenic substrate.

With GGLPVPLDQTLPLNVNPA [S18 peptide (amino acids 22-39 of human SPLUNC1)] the “IC50, dose response of ASL height in CF HBECs 8 h post-S18 addition” value [5] was 600 nM.

B1: V5-tagged SPLUNC1 expressed in Xenopus oocytes from injected cRNA (other, not shown: small tags and cut ends)
chain: QFGGLPVPLDQTLPLNVNPALPLSPTGLAGSLTNALSNGLLSGGLLGILENLPLLDILKPGGGTSGGLLGGLLGKVTSVIPGLNNIIDIKVTDPQLLELGLVQSPDGHRLYVTIPLGIKLQVNTPLVGASLLRLAVKLDITAEILAVRDKQERIHLVLGDCTHSPGSLQISLLDGLGPLPIQGLLDSLTGILNKVLPELVQGNVCPLVNEVLRGLDITLVHDIVNMLIHGLQFVIKV
For B1, the “decrease in amiloride-sensitive current relative to control oocytes” value [6] was about 70%.

Biotin-ADGGLLLLNNPPPPQTVV (also called ADG) [Control peptide ABC (alphabetized G22-A39), biotinylated]: no binding [7].

Biotin-GGLPVPLDQTLPLNVNPA (also called G22-A39) [Biotinylated S18 peptide]: no binding [8]; no binding [9].
